This is an account of results in the DeepSol protein solubility set.

The nature of the data set: soluble on expression in E. coli; label from the status in PepcDB or PDB records.
Consider “MATSLQAAATFLQPAKIAASPSRNVHLRSNQTVGKSFGLDSSQARLTCSLHSDLKDFAGKCSDAAKIAGFALATSALVVSGAGAEGAPKRLTYDEIQSKTYMEVKGTGTANQCPTIDGGSETFSFKAGKYTGKKFCFEPTSFTVKADSVSKNAPPDFQNTKLMTRLTYTLDEIEGPFEVGSDGSVKFKEEDGIDYAAVTVQLPGGERVPFLFTVKQLEASGKPESFSGKFLVPSYRGSSFLDPKGRGGSTGYDNAVALPAGGRGDEEELSKENVKNTAASVGEITLKITKSKPETGEVIGVFESLQPSDTDLGAKVPKDVKIQGVWYGQIE”, for which the “soluble on expression in E. coli” value is “soluble”.
With “MATWTVHLEGGPRRVNHASIAVGSRIYSFGGYCSGEVTDAKDPLDVHVLNTENYRWIKMNPGYVYNNRIITKATIESPYSDSDKMFGAVPYQRYGHTVVEYQGKAYVWGGRNDDYGACNLLHEYDPEYNVWKKVEIEGFVPPSRDGHTAVVWNNQMFVFGGYEEDAQRFSQETYVFDFATSTWREMHTKNDPPRWRDFHTASVIDGMMYIFGGRSDESGQVGDEHLFHTIHDQYDDTLMALNLATGAWTRTKVPENTMKPGGRRSHSTWVYDGKMYMFGGYLGTINVHYNELYCFDPKTSMWSVISVRGTYPSARRRHCSVVSNGKVYLFGGTMPLPCHPLSTTNYNGMISPSGLADLSDLHVLDFAPSLKTLAMQSVLNELKVPSKGMFETLQNELAADIRFEMYCQVMPNVVSNGGSPRNDQAG”, the “soluble on expression in E. coli” value was “not soluble”.
The entry for “MAVAANKRSVMTLFSSASDMYSHQVRIVLAEKGVSFEVELVDENNLPAELIELNPYKTVPTLVDRELALYDSKIIMEYLDERFPHPPLMPVYPVARGNSRLMIYRIERNWYSLAEKVVNGSPEVAENARNKLRNDLLTLGPVFAEFEYFMSEEFSLIDCYLAPLLWRLPVLGIDLIGPGSKELKVYMNRVFERDSFLASLTEAEREMRLAR” is “not soluble”; for “MAVAYSIGIDSGSTATKGILLADGVITRRFLVPTPFRPATAITEAWETLREGLETTPFLTLTGYGRQLVDFADKQVTEISCHGLGARFLAPATRAVIDIGGQDSKVIQLDDDGNLCDFLMNDKCAAGTGRFLEVISRTLGTSVEQLDSITENVTPHAITSMCTVFAESEAISLRSAGVAPEAILAGVINAMARRSANFIARLSCEAPILFTGGVSHCQKFARMLESHLRMPVNTHPDAQFAGAIGAAVIGQRVRTRR” it is “soluble”; for “MAVESRVTQEEIKKEPEKPIDREKTCPLLLRVFTTNNGRHHRMDEFSRGNVPSSELQIYTWMDATLKELTSLVKEVYPEARKKGTHFNFAIVFTDVKRPGYRVKEIGSTMSGRKGTDDSMTLQSQKFQIGDYLDIAITPPNRAPPTSGRMRPY” it is “soluble”.
Regarding “MAVIVLAGTIGAGKSSLTALIANRLGSEAFYESVDDNEVLPLFYAEPEKYAFLLQIYFLNKRFDSIKQALTHENNVLDRSIYEDSLLFHLNADLGRANETEVKVYDDLLQNMLQELPYAAHKKRPDLLVHIRISFPKMLERIKKRGRPYEQIETDPTLYDYYQMLNERYDQWYEDYDESPKIQIDGDKYDFVEDPEACQYVLALIEKKIEELER”, the “soluble on expression in E. coli” value is given as “not soluble”.
In the case of “MAVKISGVLKDGAGKPVVNCAIELRARRTSPTVVAHVVATCVTDNNGAYVIEAEPGYYEVALHCNGWQPTRVGDIDVAPTDAPGTLNAFLNAPKDGDLRPEVMKRFEEMVAQAQQSAGAAAGNAQQTAQDVAAAATARDDAQRFAEKARQDATVTAEDRKATAEDVTSTGANAAAAGQSAQDAAGYARAAEQAKNDIDAALTGTLKMANHLSEIAAAGEKAQQKSRDNLGLKSAATMEAQSDIYDRTKGRLAIPGAFGFGCAFLPEDVIRFDTKSDFLAWVRNALPGEYSVAGPYGIIIPDTRFEGVLSIRWTDARPETTEPRYRAKSLTFYGINGPIYHTRYRYWPISRLTG”, the “soluble on expression in E. coli” value was “not soluble”.
Consider “MAVLKGLRPRVPKGLKSPPEPWGWPLLGHVLTLGKNPHLALSRMSQRYGDVLQIRIGSTPVLVLSRLDTIRQALVRQGDDFKGRPDLYTSTLITDGQSLTFSTDSGPVWAARRRLAQNALNTFSIASDPASSSSCYLEEHVSKEAKALISRLQELMAGPGHFDPYNQVVVSVANVIGAMCFGQHFPESSDEMLSLVKNTHEFVETASSGNPLDFFPILRYLPNPALQRFKAFNQRFLWFLQKTVQEHYQDFDKNSVRDITGALFKHSKKGPRASGNLIPQEKIVNLVNDIFGAGFDTVTTAISWSLMYLVTKPEIQRKIQKELDTVIGRERRPRLSDRPQLPYLEAFILETFRHSSFLPFTIPHSTTRDTTLNGFYIPKKCCVFVNQWQVNHDPELWEDPSEFRPERFLTADGTAINKPLSEKMMLFGMGKRRCIGEVLAKWEIFLFLAILLQQLEFSVPPGVKVDLTPIYGLTMKHARCEHVQARRFSINHHHH”, for which the “soluble on expression in E. coli” value is listed as “soluble”.
Regarding “MAVPVRHLVAVTACVSGVAHTYMAAERLEKLCQQEKWSIKIETQGALGTENRLTEEDIRRADVVLLITDIELAGVERFTRSRYVQSGISAFLREPQRVMSAVRKLLSAPQHTHLILE”, the “soluble on expression in E. coli” value is listed as “not soluble”.
As to “MAVRKLTTGKWLCECYPAGRSGRRVRKQFATKGEALAFERHTMEETEAKPWLGESVDRRTLKDVVELWFKLHGKSLTAGQHVYDKLLLMVDALGNPLATDLTSKMFAHYRDKRLTGEIYFSEKWKKGASPVTINLEQSYLSSVFSELSRLGEWSYPNPLENMRKFTIA”, the “soluble on expression in E. coli” value is “not soluble”.
As for “MAVRKLWKTVVQLFSKSKSEECNTEAGTMEVSFLKYGVRGLNADCSYVKSQCIKLSECECLYTFASDVCKEDFHNSEEMKVFVVQHSQEMVDGTDLFVHAEESV”, the “soluble on expression in E. coli” value is “not soluble”.
For “MAVSLVKGGNVSLTKEAPTMNIAVVGLGWDARVTDGSEFDLDASVFMVGENGKVLSDQHFIFFNNKVSPCGSVVHQGDNRTGAGDGDDEQIKIDLKKVPADVKKIIFSVTIYDAEARKQNFGMVSNSFMRVVNEDNSAEIARFDLSEDASTETAMIFGELYRNNDEWKFKAVGQGFAGGLSALASQHGVSV”, the “soluble on expression in E. coli” value is recorded as “not soluble”.
With “MAWPKVQPEVNIGVVGHVDHGKTTLVQAITGIWTSKHSEELKRGMTIKLGYAETNIGVCESCKKPEAYVTEPSCKSCGSDDEPKFLRRISFIDAPGHEVLMATMLSGAALMDGAILVVAANEPFPQPQTREHFVALGIIGVKNLIIVQNKVDVVSKEEALSQYRQIKQFTKGTWAENVPIIPVSALHKINIDSLIEGIEEYIKTPYRDLSQKPVMLVIRSFDVNKPGTQFNELKGGVIGGSIIQGLFKVDQEIKVLPGLRVEKQGKVSYEPIFTKISSIRFGDEEFKEAKPGGLVAIGTYLDPSLTKADNLLGSIITLADAEVPVLWNIRIKYNLLERVVGAKEMLKVDPIRAKETLMLSVGSSTTLGIVTSVKKDEIEVELRRPVAVWSNNIRTVISRQIAGRWRMIGWGLVEI”, the “soluble on expression in E. coli” value is “soluble”.
Regarding “MAYLERAYFGLQCFWGESAWAKLKGVVVTRVGYAGGKQPNPTYKNIKDHTEITEITFDPKVIEYSKLTNFFWKHHNPAERRKKQYQSAILYVNDDQKKVAEETLKVAKDKHGDIETYIEPLDKFYQAEDYHQKYWFRQKKILFDELSLLDTQVAEGELATKLNAYCAGFQDFHDLERLAKEYGLKDSFVNKVKDYALSGGDPRNCHA”, the “soluble on expression in E. coli” value is on record as “not soluble”.
With “MAYNSNSNNNNNNIVVVFDFDKTIIDVDSDNWVIDELGFTDLFNQLLPTMPWNTLMDRMMKELHDQGKTIEEIKQVLRTIPIHPRVVPAIKSAHDLGCELRIVSDANMFFIETIVEHLGISELFSEINSNPGYVDERGTLKISPYHDFTKSPHSCSCGTCPPNMCKGLIIERIQQSLAKEGKKKMIYLGDGAGDYCPSLKLNTEDYVMPRKNFPVWDLISQNPMLIKAAIREWTDGQSMEMILIGTIEEIRLEEEKEKMLTSAENNCKMQTISIGINNVHHEPILPRALRVSQSS”, the “soluble on expression in E. coli” value was “soluble”.
As to “MCAKATMEEFEALLNESLQIDTPQEGSVVKGKVIAVEAGQAIIDVGYKMEGRVDLKEFADMSGSVDISVGDEVEVYLDRVENARGEAVISRDKAKREEAWDRLEKAYANETRVEGAIFGRVKGGFTVDLGGAVAFLPGSQVDVRPVRDAGPLMGMKQPFQILKMDRRRGNIVVSRRAILEESRAEQRAEVISNLFEGQTVDGVVKNITEYGAFVDLGGVDGLLHVTDMAWRRVNHPSEILSIGETVKVQVIKINKETHRISLGMKQLQSDPWDAVEKAYPIGSVHKGRVTNITDYGAFVELEAGVEGLVHVSEMSWTKKNVHPGKIVSTSQEVDVMVLEIDSAKRRVSLGLKQTMRNPWEVFAETHPVGTPIEGEVKNITEFGLFVGLEHDIDGMVHLSDLSWDQRGEEAIQNYRKGDVVKAVVTEVDTDKERISLSIKALGDDTFSEAIEGVKRGSVITVTVTAIEDGGIEVEYNSMKSFIRRSDLSRDRADQRPERFQVGDKVDVRVTNVDAKTRRLGLSIKAREIAEEKEAVEQYGSSDSGASLGDILGAALRNSDRGLEHHHHHH”, the “soluble on expression in E. coli” value was “soluble”.
Consider “MCETCLIVIMDSSHDFSFADTFALQVATWFSDVFAQPTVVQRQAWAAISAGENALVVAPTGSGKTLAAFLWALNELVQGSGQTALLSRQAAGSAEVEASRAKGVKVVYISPLKALGVDVENNLRAPLTGINQVAARLGIDQSDITVGVRSGDTPASERSKQVRNPPDILITTPESLYLMLTSKARSILTTVDTVIVDEIHAMAGTKRGVHLALSLERLEHLAAQPVQRIGLSATVRPLDVVARFLGGDRPVEVINPPLEKKWQLAVHVPVDDMSDLPTPEPVSEIGEATIDDPLGLTTQPEGFAESALPAQGSMWTFIEQDVFDEVMEHRSTLVFVNSRRTAERLTSRLNELYAQRFQPEALSPALRRPPAQLMKSIDIAGEATAIIARAHHGSVSKDERALTEKMLKQGELRAVVSTSSLELGIDMGAVDKVIQVESPPSVASGLQRVGRAGHVVGAVSHGSFYPKHRADLVQTAVTVGRMTEGLIEELHVPTNALDVLVQHTVAAVAMDDLDVEDWYATVVRAYPYRDLPREAFDAAIDLTAGVYPSTDFAELRPKVIYDRITGTLSARPGAQRTAVINGGTIPDRGMFGVFLVGSGESGAPRRVGELDEEMVYESRVGDVFTLGASSWRIEEINKDQVLVTPAPGHTGRLPFWTGDQAGRPAELGKALGAFRRTLVADPSVVEGMGLDVRARSNVVAFIQQQQESTGVVPDEVTLVLERFRDELGDWRVVLHSPYGRGVNAAWALVAGAAFSQRTGMDAQPVASDDGIVLRVPESDAEPGADLFEIDPDTVEELVAQQVGNSALFAARFRECAARALLLPSRTPGKRAPLWQQRQRAAQLLDVARKYPSFPIVLETVRECLHDVYDLDALVELAAALKLRKVRIAEVTTQQP”, for which the “soluble on expression in E. coli” value is reported as “not soluble”.
Regarding “MCGLLGMLSSTGQASKYAAAIESALPCMHHRGPDEAGTWHDDHAVFGFNRLSIIDLEHSHQPLRWGPEGEPDRYAMTFNGEIYNYVELRKKLQDLGYTFNTSGDGETIAVGFHHWGADVVLHLRGMFGIAIWDTKEQRLFLARDQFGIKPLYFATTEAGTVFASEKKCILGMADAIGLDLGLDQRAIEHYIDLQYVPEPESLHQHIRRLESGCFAFVSVGGNVEQTRYFRPQFPAQEF”, the “soluble on expression in E. coli” value was “not soluble”.
Regarding “MCIGVPVQVISPGQWFAKCRDRHGELIDVDIRLVAPPLAGAWLLTFGGAARREMDEAEAAEVLAALDSLEQAMLTQSDPLTGFADLLSRTPELPEHLKK”, the “soluble on expression in E. coli” value was “not soluble”.
For “MCIKGCKRRIHPTRLLMLIRTEAPADILVVDQLLKNVFATEAEADLVMALRENGQRTLSLVACDDEGEIVGHVMFSPVTLEGEDLNWQGLAPLAVKEEYRRQGIGAELVKEGLSSLGELGYPACVVLGDPAYYSRFGFEDAARYSLRCAWDVPQGAFQVVALWERELDGRCGVIEYSQEFAAL”, the “soluble on expression in E. coli” value is recorded as “not soluble”.
